One may read the Kd as the concentration at which binding is half-saturated.

The target in assay [1] is Recombinant human VEGFR1 (human) (UniProt P17948). Briefly: SPR. In general terms: Surface plasmon resonance follows binding to a sensor surface in real time, without labels.
The target of assay [2] is Recombinant human VEGFR2 (human) (UniProt P35968). Briefly: SPR.
Chain of UniProt P35968 (P35968 20-764): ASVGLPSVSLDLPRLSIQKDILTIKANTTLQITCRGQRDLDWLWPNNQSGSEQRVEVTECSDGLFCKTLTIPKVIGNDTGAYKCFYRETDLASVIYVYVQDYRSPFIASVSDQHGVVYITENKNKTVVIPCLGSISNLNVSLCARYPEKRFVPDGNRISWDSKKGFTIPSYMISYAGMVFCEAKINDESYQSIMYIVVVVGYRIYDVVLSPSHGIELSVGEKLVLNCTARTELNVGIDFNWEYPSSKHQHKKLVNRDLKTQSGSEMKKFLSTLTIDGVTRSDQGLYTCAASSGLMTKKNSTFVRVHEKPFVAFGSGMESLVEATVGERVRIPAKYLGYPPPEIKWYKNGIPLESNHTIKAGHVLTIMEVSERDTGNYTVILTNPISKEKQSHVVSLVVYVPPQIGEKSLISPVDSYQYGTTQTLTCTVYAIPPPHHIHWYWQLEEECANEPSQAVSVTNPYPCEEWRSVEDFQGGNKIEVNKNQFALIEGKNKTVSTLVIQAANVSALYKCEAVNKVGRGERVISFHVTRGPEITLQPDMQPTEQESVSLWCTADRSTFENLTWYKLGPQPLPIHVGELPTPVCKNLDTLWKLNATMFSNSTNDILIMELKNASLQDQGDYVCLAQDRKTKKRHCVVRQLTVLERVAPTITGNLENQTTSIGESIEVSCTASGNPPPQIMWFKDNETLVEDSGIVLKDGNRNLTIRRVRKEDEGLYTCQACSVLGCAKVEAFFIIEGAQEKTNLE

Chain of UniProt P17948 (P17948 27-758): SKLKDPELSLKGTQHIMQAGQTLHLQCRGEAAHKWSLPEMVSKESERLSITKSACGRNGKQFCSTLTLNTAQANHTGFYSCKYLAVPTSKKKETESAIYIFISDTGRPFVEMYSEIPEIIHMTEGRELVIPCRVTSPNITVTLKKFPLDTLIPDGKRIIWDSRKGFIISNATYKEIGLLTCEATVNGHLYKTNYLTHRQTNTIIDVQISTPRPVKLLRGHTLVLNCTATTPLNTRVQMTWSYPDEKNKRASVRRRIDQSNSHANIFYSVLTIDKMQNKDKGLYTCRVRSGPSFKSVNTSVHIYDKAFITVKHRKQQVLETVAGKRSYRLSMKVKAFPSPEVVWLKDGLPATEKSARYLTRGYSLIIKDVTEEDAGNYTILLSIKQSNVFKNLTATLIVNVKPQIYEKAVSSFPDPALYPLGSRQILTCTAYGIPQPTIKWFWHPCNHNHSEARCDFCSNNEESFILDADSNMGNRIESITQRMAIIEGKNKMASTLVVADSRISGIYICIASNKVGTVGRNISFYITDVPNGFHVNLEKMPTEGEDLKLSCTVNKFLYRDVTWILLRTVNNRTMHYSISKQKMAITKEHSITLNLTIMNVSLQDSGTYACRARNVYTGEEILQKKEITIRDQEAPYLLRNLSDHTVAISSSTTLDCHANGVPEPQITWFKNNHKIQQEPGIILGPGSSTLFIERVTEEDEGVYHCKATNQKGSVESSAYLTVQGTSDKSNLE

As for “Recombinant human VEGFA (from UniProt P15692 1-395) (ligand)”, the Kd in assay [1] is 0.0231 nM; in assay [2], 0.398 nM.

(Values after publication PMC5993529.)
